# Assay: soluble on expression in E. coli; label from the status in PepcDB or PDB records
row,Sequence,soluble on expression in E. coli
1,MAHYPPSKDQLNELIQEVNQWAITNGLSMYPPKFEENPSNASVSPVTIYPTPIPRKCFDEAVQIQPVFNELYARITQDMAQPDSYLHKTTEALALSDSEFTGKLWSLYLATLKSAQYKKQNFRLGIFRSDYLIDKKKGTEQIKQVEFNTVSVSFAGLSEKVDRLHSYLNRANKYDPKGPIYNDQNMVISDSGYLLSKALAKAVESYKSQQSSSTTSDPIVAFIVQRNERNVFDQKVLELNLLEKFGTKSVRLTFDDVNDKLFIDDKTGKLFIRDTEQEIAVVYYRTGYTTTDYTSEKDWEARLFLEKSFAIKAPDLLTQLSGSKKIQQLLTDEGVLGKYISDAEKKSSLLKTFVKIYPLDDTKLGREGKRLALSEPSKYVLKPQREGGGNNVYKENIPNFLKGIEERHWDAYILMELIEPELNENNIILRDNKSYNEPIISELGIYGCVLFNDEQVLSNEFSGSLLRSKFNTSNEGGVAAGFGCLDSIILY,soluble
2,GAMSGLADKVIWAVNAGGESHVDVHGIHYRKDPLEGRVGRASDYGMKLPILRSNPEDQVLYQTERYNEDSFGYDIPIKEEGEYVLVLKFAEVYFAQSQQKVFDVRVNGHTVVKDLDIFDRVGHSTAHDEIIPISIKKGKLSVQGEVSTFTGKLSVEFVKGYYDNPKVCALFIMKGTADDVPMLQPHPGLE,soluble
3,MSLQQGINKPIFQQAKLFRYQLPFKIPIVFKGIKLTAREGVILQVQNDKGEFNFAEIAPLPGFSKETLQQATAQIIALLNTPPLNSQSDILLYPSVAFALDCILHNIPISELFKTAESIPLLQGDNHSVLKQYLQMNKPNSVKLKIGRQSVAKDITLFSALSALNNNLLIRCDANQSWTFAQADLFFANINTQLIDYIEEPTASLSDNINLAERYEVQLALDETLQQKQFQYQHHRCFKALILKPTLIGSFERLNYFIKTAKKFHLSVSISSSFESPLGLSQLAFMASQWSKEVDISCGLDTLKFFESAILNKNSDKKLDNKTPINQQVKHLECLWTSNEGHHHHHH,soluble
4,MGSDKIHHHHHHMHEDHFDKFVQKNLDRNIPIVTTEEAGKSLKELGFMKRHPLKTWDTLIVERGNTLLRVTAMPGRHGPPIVAELLPEVMGSLLDFGIKNSPRSYRMYISGDTMVFDDIKEIPRRYPDVDLALLHLGGTRLLGLVTVTMDAKEGVKMMQLIVPRKAIPIHYNDYDVFKSPLSDFKKEMERAGLQDKIIYLEHGDTYEFDLEEK,not soluble
5,MGSDKIHHHHHHMRLTTKGRFAVTAMIDLALREHSGPVALAAISSRQQISLSYLEQLFGKLRRHELVESTRGPGGGYSLGRKAEEITVADIIVAVDEPIDATGCGGKENCMGEDSGRCMTHDLWASLNTKMIEFLDSISLRKLVDDQLAKGVSIEEAPVKRAISSQPVVKPIKITAPNSVFALGSSFSK,not soluble
6,MHYHGSCHCGTIRFDVEGELTGAMSCNCSICRRKGALLWFVPRDHLRLATPDEQIATYTFNRHLIKHRFCPTCGIHTHGEGVDQQGRAMAAINIRCLDDVDLDAVAVHQYDGRAALEHHHHHH,soluble
7,MNLNYKFERLYRVLFNEEMFYVAYQNIYSKTGNMTAGADGKTIDGMSIDRVEQLIGSLKNETYQPNPSKRTYIPKKNGKKRPLGIPSFDDKLVQEVVRMILEAIYEGSFEHTSHGFRPKRSCHTALIDIQKTFTAVKWFIEGDIKGFFDNINHDVLINILRERIADERFLRLIRKFLNAGYVEDWVFHRTYSGTPQGGIISPILANIYLDKFDKYIKEYINRFNKGVTRKGDARYKLYEQRRYRLAKKLKNEKDVKVRKQMTAEIKRLREERNNYPARNEMDSSIKRLKYVRYADDFLIGITGNLEDCKTVKEDIKNYLNEALKLELSDEKTLITNAQKPAKFLGYDVFIRRCNDLRKDKYGKTVRAFGHKPVLYLNFETMRKKLFDYKAARIAVVNGKEVWKSIVRTYMLNLDDLEIVSQFNAEIRGFYNYYSIANNSYVINSFYHIMSYSMYKVFANKYKSSVKKILLKYKKNKVFQVAYENSKGKTLYQSFYHDGFKRKKVAGNIYCDTIPRTVSITGGRNSLMERLKLQVCELCGATDKLEMHHVRKLKDLKGKSDWEKKMIARRRKTLAVCSKCHAKIDPDRRIRLNLEHHHHHH,not soluble
8,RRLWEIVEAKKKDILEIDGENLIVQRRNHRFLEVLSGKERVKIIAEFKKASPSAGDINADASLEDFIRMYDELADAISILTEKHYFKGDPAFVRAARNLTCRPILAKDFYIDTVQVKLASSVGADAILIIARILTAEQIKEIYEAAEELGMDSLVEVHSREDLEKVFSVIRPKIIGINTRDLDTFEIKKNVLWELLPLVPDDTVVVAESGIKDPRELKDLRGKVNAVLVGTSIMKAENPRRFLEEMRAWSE,soluble
9,MNILLFGKTGQVGWELQRSLAPVGNLIALDVHSKEFCGDFSNPKGVAETVRKLRPDVIVNAAAHTAVDKAESEPELAQLLNATSVEAIAKAANETGAWVVHYSTDYVFPGTGDIPWQETDATSPLNVYGKTKLAGEKALQDNCPKHLIFRTSWVYAGKGNNFAKTMLRLAKERQTLSVINDQYGAPTGAELLADCTAHAIRVALNKPEVAGLYHLVAGGTTTWHDYAALVFDEARKAGITLALTELNAVPTSAYPTPASRPGNSRLNTEKFQRNFDLILPQWELGVKRMLTEMFTTTTI,soluble
10,MADEAQAPPAEGAPPAEGEAPPPAEGAEGAVEGGEAAPPAEPAEPIKHSYTLFYFNVKALAEPLRYLFAYGNQEYEDVRVTRDEWPALKPTMPMGQMPVLEVDGKRVHQSISMARFLAKTVGLCGATPWEDLQIDIVVDTINDFRLKIAVVSYEPEDEIKEKKLVTLNAEVIPFYLEKLEQTVKDNDGHLALGKLTWADVYFAGITDYMNYMVKRDLLEPYPALRGVVDAVNALEPIKAWIEKRPVTEV,soluble
11,MSLETVRLQRELIEAQRQTYNEMRTYFTVNGVEGVIGAVFDEGVITLRVPSEVLFAPGAVELAPGADRVLATLKDLFIRRREQNINIKGFTDDVQPSANARFKDNWEVSALRSVNVLRYFLGAGIEPARLTATGLGELDPLFPNTSDENRARNRRVEFVLERRVVREGHHHHHH,soluble
12,MNTKYNKEFLLYLAGFVDGDGSIIAQIEPNQSYKFKHRLKLTFKVTQKTQRRWFLDKLVDEIGVGYVSDSGSVSNYILSEIKPLHNFLTQLQPFLKLKQKQANLVLKIIEQLPSAKESPDKFLEVCTWVDQIAALNDSKTRKTTSETVRAVLD,soluble
13,MGSDKIHHHHHHMTLTYFLDKETDTPIYKQLYESLRKDILSGKLKTGAKLPSIRHFAQTLNVSVITVQNAYHQLEAEGYITSRDRSGYYVENLAGLTLLERQDAKIIHAPHHDQASEDQIIDFSPSNIDNAQFPLSIWRKCVNETLLNHETRFNHHGAKLGELPLRAAVADYVTKSRILDCTEEQVVIFEGIEHSMNILSLLFKQMGKTAIMEQPSYKVIEDIFSLHQLPIQRVPSPKGVLSLEDLQEQKNGVLYLTPSHQYPYGSFLSIQERIKIINWAQNSESYVIEDDYDGEFRYDIDPVPSLQGLSKNHVIYIGTFSKTLSPAIRVSYAILPPELMKRYQEVCSMFPSPVSVHLQLALAKFMEDGHYERHIRRMRKYYKEKQDFLIATIQEVMGDHAALHGTTAGLHLVLELKNNSRPYKQLLAAARAHGVNIYPVKDVTPNPYFILGFSGLPREKITEGIRRLHKAWIE,not soluble
14,MGSDKIHHHHHHMREVHVNDIKEAVKEAIIEANCVLPREVRVAFQEALKREESPIGREVLTQILENAEIAQYYYMPYCQDTGVDVIFVFLGQDVHVVGGSLEDAINQGVREATEEGYLRASMVWDPVFERKNTKDNTPAIIHYEVVPGDRVKIVVAPKGAGSENTSRLAMLKPADGWEGVKKFILETVKFAGPNACPPFTVGVGIGGNFEYCAYLAKKALLRPVGKRHENPLIAKVEEELLEEINKIGWGPMGFGGTVTAVDVKVEMYPCHIASLPVAVNIQCHANRHAERVV,not soluble
15,MRIGHGFDVHAFGGEGPIIIGGVRIPYEKGLLAHSDGDVALHALTDALLGAAALGDIGKLFPDTDPAFKGADSRELLREAWRRIQAKGYTLGNVDVTIIAQAPKMLPHIPQMRVFIAEDLGCHMDEVNVKATTTEKLGFTGRGEGIACEAVALLMKAAK,not soluble
16,DYLRQVFPHYKVQKITLNAGFTCPNRDGLKGWGGCTYCNNQTFSPAFAMKDRSVSEQLRDGIAFFARKYPHMKYLAYFQAYTNTYGEQAEIIRKYEEALNYYDVVGIIIGTRPDCMPDSLLSYLKDLSERVFVLVEYGVESTLDATLRRVNRGHLWSDSMAAIERTAKTGLPIGVHLILGLPGESREDILRHADKISALPVTTLKLHQLQIIRGTAMAKEYAESPSD,not soluble
17,MNKEITFDKLPEAVTYLTEQVSAIKEMVSALHPPVPEEKSLIGIDEACVIIQKAKPTIYALVRKGIVPAYKRGKKLYFYKEELLQWVESGRKGATTAISSEEQLAMMRQEVRRKPKSIK,not soluble
18,MSLTMREVAKAAGVSIKTVSNVVNDYEFVSQATRDKVNKAIAELGYTVNVSARNLRRGQTGIIGLAIPDLQMPYFAQLSSLVIEEAKKVGLRVIVEPTQYSRDGELEALHGSQQMMIDGLIYSPLELGQDDVEQLKVDYPLVLVGERIFTDQVDHIATENVEGAKRATQYLLTTGCRRVAVVGVHPGEKVGSAALRYQGYLEALEEAGVEFDDRLVVESGMWHRSDGVRAMNALLDSGVEVDGVVALNDMLASGVMHAIQMHGLHIPDDISVVGFDNSDDSQYLSPALTSIAPGLEAVARLSVKVLKERIDGRDPNADRPGEKVFRKVASSLVVRQSTKLPIDSLVLEGHHHHHH,not soluble
19,GKNMDTSAEPADVQANVSDSSRIEQEAIGMIEDFYEAYAASFMSTGKEALALGDSIKQKFLTKELIEKVDRLIEATDADPIIRAQDLGENDMKTLSVKHLNDNWYEVNYTSAKGSQYERAVSIPVRVVNVDGQYLIDDITPEN,soluble
20,MTTPAPVPRITVLLPVYNGEQYLREALDSLLTQTYRNFSLLAVDDGSTDSSLEILRSIKDPRLSVKVNPRNRGLINTLNESLDLIQSEYVARMDADDIATPYRLEEQLAFMDAHPDVGLCGGYYERFTDTESIVVRPPTTHEDISYALIFDNVMAHNTVMFRRSVLERYRLRYDPAFAYAEDYELWVRFARYSRLANLPRVLVRYRFHPANTSSRFRHEQQIAAAKIRHIHRTNLGLEPRPGDAALHRQLFDMRFEGDLPELTAAGIWLSKLYRVGVRRCRQNPVSTFLEFNKLWYSACGRLADHGLKVFAQFLRQPFGFLGNPAYTLKLAYRCWRRIRIALEHHHHHH,not soluble
21,MGSDKIHHHHHHMEKKIVYFNKPGRENTEETLRLAVERAKELGIKHLVVASSYGDTAMKALEMAEGLEVVVVTYHTGFVREGENTMPPEVEEELRKRGAKIVRQSHILSGLERSISRKLGGVSRTEAIAEALRSLFGHGLKVCVEITIMAADSGAIPIEEVVAVGGRSRGADTAVVIRPAHMNNFFDAEIKEIICMPRNKR,soluble
22,MSREDELLEKLDECENATAFLQVSNKIINLKLKALLPSVFVQDDLVKEYAVDPLLREDGPLVTTDVVSKLMFAMGKISLQTYADIGLYDQVLEYVVTQPEKIAFTDDVIYDFIKNQAVLSSQQDCFYLESINQLKFSSFESFSQMRYESLIKTVLKLSCEMLIERIEE,not soluble
23,MSLSTEPLASRMRPKNIDEIISQQHLVGPKGIIRRMVDTKRLSSMIFYGPPGIGKTSIAKAISGSTQFKFRQLNAVTNTKKDMQLIVEEAKMSGQVILLLDEIHRLDKAKQDFLLPHLENGKIVLIGATTSNPYHAINPAIRSRAQIFELYPLDQDDIRLALDRAINDKERGLSTYHPIVDEDAIEYFSTQSQGDVRSALNALELAVLSAHIGEENERHITLDDAKDCLQKGAFVSDKDGDMHYDVMSAFQKSIRGSDVNAALHYLARLIEAGDLPTIVRRLLVISYEDVGLASPNAGQRTLAAIQSAERLGFPEARIPLSQAVIELCLSPKSNSGITAIDKALGDIRNGHIGQIPDYLKDGHYSGAKKLGRAIGYKYPHNYENGHVVQQYLPEKLKNRVYYEPKTTSKSEQQFKTIYDNLRNKEGHHHHHH,not soluble
